Patent US20210070881A1

Molecular target: cellular BACE1 in CHOK1-huAPP cells
Assay: cell-based or functional assay

cellular IC50 (human Aβ40, CHO-huAPP cells): 37 nM
maximum percent Aβ reduction compared to untreated control: 83%
B1: Clone35.23.4:Control IgG (anti-RSV)/2H8 (bispecific antibody, part only; not given: Anti-RSV arm; TfR-binding Fc, V domains shown, part only)
VH: QVQLVQSGAEVKKPGASVKVSCKASGYTFTNFWIHWVRQAPGQGLEWMGMIDPSSSYTKYNQKFKARATLTVDTSTSTVYMELSSLRSEDTAVYYCARSGASLPYWGQGTLVTVSS
VL: DIQMTQSPSSLSASVGDRVTITCKASQDVGRNVAWYQQKPGKSPKSLIYSASHYYSGVPSRFSGSGSGTDFTLTISSLQPEDFATYFCQQYYSYPYTFGQGTKVEIK
